Here are results for one molecule from paper PMC8764063.

This assay deals with T1, IRF3 (human (endogenous in U2OS)), Q14653.
T1 chain: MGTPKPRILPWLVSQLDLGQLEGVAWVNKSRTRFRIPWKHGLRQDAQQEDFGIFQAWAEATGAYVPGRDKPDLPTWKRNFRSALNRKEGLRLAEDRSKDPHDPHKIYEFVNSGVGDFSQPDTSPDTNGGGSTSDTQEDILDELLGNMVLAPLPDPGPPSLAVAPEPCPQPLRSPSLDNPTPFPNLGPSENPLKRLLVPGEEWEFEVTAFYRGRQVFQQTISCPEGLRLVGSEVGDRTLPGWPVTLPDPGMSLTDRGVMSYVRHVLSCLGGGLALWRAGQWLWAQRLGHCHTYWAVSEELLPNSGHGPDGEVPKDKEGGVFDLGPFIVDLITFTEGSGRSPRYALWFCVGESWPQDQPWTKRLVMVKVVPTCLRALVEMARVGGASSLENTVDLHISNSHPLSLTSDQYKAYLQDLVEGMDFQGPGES
Kind of assay: native gel or EMSA; native gel and Western blot for IRF3 of lysates (TBS lysis buffer: 20 mM Tris pH 7.5, 150 mM NaCl, 0.5% NP-40) of wild-type, PARP1 D214N or PARP1 KO U2OS cells with or without poly(dA-dT) (5 ug/ml, six hours); monomer to dimer. The conditions noted are these: remark: other sources report otherwise. (In EMSA bound probe runs differently from free probe, usually more slowly.)

B1: IRF3, Q14653 1-427 (natural protein)
chain: MGTPKPRILPWLVSQLDLGQLEGVAWVNKSRTRFRIPWKHGLRQDAQQEDFGIFQAWAEATGAYVPGRDKPDLPTWKRNFRSALNRKEGLRLAEDRSKDPHDPHKIYEFVNSGVGDFSQPDTSPDTNGGGSTSDTQEDILDELLGNMVLAPLPDPGPPSLAVAPEPCPQPLRSPSLDNPTPFPNLGPSENPLKRLLVPGEEWEFEVTAFYRGRQVFQQTISCPEGLRLVGSEVGDRTLPGWPVTLPDPGMSLTDRGVMSYVRHVLSCLGGGLALWRAGQWLWAQRLGHCHTYWAVSEELLPNSGHGPDGEVPKDKEGGVFDLGPFIVDLITFTEGSGRSPRYALWFCVGESWPQDQPWTKRLVMVKVVPTCLRALVEMARVGGASSLENTVDLHISNSHPLSLTSDQYKAYLQDLVEGMDFQGPGES
For orientation: stoichiometry N means a count of units in the complex or per binding partner. On to B1, for which the stoichiometry N came to 2.
